# Measured values published in IntAct's records for PubMed 31515488.
# B1: Leucine rich adaptor protein 1 (Homo sapiens), Q96LR2 (parent)
# chain: MEGTVESQTPDLRDVEGKVGRKTPEGLLRGLRGECELGTSGALLLPGASSTGHDLGDKIMALKMELAYLRAIDVKILQQLVTLNEGIEAVRWLLEERGTLTSHCSSLTSSQYSLTGGSPGRSRRGSWDSLPDTSTTDRLDSVSIGSFLDTVAPSELDEQGPPGAPRSEMDWAKVIAGGERARTEVDVAATRLGSLRAVWKPPGERLQGGPPESPEDESAKLGFEAHWFWEQCQDDVTFL
# partner: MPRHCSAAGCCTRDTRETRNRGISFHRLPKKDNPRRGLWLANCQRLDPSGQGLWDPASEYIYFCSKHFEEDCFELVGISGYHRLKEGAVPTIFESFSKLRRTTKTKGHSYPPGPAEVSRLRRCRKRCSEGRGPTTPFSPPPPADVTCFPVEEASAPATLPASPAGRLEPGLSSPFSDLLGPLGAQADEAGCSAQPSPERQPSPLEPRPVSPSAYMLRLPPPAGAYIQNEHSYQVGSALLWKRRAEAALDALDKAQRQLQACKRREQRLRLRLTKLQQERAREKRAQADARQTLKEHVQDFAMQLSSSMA
# B2: LIM/homeobox protein Lhx4 (Homo sapiens), Q969G2 (parent)
# chain: MMQSATVPAEGAVKGLPEMLGVPMQQIPQCAGCNQHILDKFILKVLDRHWHSSCLKCADCQMQLADRCFSRAGSVYCKEDFFKRFGTKCTACQQGIPPTQVVRKAQDFVYHLHCFACIICNRQLATGDEFYLMEDGRLVCKEDYETAKQNDDSEAGAKRPRTTITAKQLETLKNAYKNSPKPARHVREQLSSETGLDMRVVQVWFQNRRAKEKRLKKDAGRHRWGQFYKSVKRSRGSSKQEKESSAEDCGVSDSELSFREDQILSELGHTNRIYGNVGDVTGGQLMNGSFSMDGTGQSYQDLRDGSPYGIPQSPSSISSLPSHAPLLNGLDYTVDSNLGIIAHAGQGVSQTLRAMAGGPTSDISTGSSVGYPDFPTSPGSWLDEMDHPPF
# partner: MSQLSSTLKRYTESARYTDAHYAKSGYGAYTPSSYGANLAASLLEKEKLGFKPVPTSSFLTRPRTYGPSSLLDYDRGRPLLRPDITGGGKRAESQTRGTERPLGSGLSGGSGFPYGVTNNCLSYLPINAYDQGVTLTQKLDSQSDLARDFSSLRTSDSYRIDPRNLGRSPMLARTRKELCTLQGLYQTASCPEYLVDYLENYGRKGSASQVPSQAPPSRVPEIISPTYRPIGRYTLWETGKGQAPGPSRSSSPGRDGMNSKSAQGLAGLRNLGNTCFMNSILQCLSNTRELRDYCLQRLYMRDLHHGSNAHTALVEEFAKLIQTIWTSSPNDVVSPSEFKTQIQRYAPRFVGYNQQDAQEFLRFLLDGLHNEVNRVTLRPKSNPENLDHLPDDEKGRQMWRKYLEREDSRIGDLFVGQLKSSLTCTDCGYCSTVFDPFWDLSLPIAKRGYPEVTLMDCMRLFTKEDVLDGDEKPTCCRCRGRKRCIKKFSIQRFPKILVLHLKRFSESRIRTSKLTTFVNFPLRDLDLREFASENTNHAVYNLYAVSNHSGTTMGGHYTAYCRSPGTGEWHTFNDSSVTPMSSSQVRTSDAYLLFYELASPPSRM
# B3: Centrosomal protein of 55 kDa (Homo sapiens), Q53EZ4 (parent)
# chain: MSSRSTKDLIKSKWGSKPSNSKSETTLEKLKGEIAHLKTSVDEITSGKGKLTDKERHRLLEKIRVLEAEKEKNAYQLTEKDKEIQRLRDQLKARYSTTTLLEQLEETTREGERREQVLKALSEEKDVLKQQLSAATSRIAELESKTNTLRLSQTVAPNCFNSSINNIHEMEIQLKDALEKNQQWLVYDQQREVYVKGLLAKIFELEKKTETAAHSLPQQTKKPESEGYLQEEKQKCYNDLLASAKKDLEVERQTITQLSFELSEFRRKYEETQKEVHNLNQLLYSQRRADVQHLEDDRHKTEKIQKLREENDIARGKLEEEKKRSEELLSQVQFLYTSLLKQQEEQTRVALLEQQMQACTLDFENEKLDRQHVQHQLHVILKELRKARNQITQLESLKQLHEFAITEPLVTFQGETENREKVAASPKSPTAALNESLVECPKCNIQYPATEHRDLLVHVEYCSK
# partner: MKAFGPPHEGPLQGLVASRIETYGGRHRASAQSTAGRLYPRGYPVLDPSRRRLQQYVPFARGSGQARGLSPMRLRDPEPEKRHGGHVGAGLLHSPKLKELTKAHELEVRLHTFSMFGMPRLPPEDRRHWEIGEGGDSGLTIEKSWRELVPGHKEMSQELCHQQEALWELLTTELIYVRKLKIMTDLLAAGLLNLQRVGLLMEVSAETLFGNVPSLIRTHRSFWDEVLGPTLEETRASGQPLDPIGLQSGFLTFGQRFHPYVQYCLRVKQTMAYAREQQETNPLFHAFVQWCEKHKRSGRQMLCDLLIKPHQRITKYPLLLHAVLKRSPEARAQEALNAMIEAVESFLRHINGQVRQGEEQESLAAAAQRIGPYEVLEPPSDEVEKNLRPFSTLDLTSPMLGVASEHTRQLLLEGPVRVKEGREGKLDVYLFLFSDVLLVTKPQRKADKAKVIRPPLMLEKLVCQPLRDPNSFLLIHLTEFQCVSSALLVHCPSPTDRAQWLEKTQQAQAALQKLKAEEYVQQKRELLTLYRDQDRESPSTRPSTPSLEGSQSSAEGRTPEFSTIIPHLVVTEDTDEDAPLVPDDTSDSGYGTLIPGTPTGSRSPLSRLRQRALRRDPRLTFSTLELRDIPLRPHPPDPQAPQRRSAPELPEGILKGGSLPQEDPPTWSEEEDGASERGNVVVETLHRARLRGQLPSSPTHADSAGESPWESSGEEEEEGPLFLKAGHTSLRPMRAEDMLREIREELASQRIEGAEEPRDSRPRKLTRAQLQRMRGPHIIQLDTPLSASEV
# B4: Cyclic AMP-dependent transcription factor ATF-4 (Homo sapiens), P18848 (parent)
# chain: MTEMSFLSSEVLVGDLMSPFDQSGLGAEESLGLLDDYLEVAKHFKPHGFSSDKAKAGSSEWLAVDGLVSPSNNSKEDAFSGTDWMLEKMDLKEFDLDALLGIDDLETMPDDLLTTLDDTCDLFAPLVQETNKQPPQTVNPIGHLPESLTKPDQVAPFTFLQPLPLSPGVLSSTPDHSFSLELGSEVDITEGDRKPDYTAYVAMIPQCIKEEDTPSDNDSGICMSPESYLGSPQHSPSTRGSPNRSLPSPGVLCGSARPKPYDPPGEKMVAAKVKGEKLDKKLKKMEQNKTAATRYRQKKRAEQEALTGECKELEKKNEALKERADSLAKEIQYLKDLIEEVRKARGKKRVP
# Variants of: B1
# Conditions: with thap7_human THAP7, Q9BT49
row,Variant,effect of a mutation on the interaction
1,Q207R,disrupting interaction strength

# Variants of: B2
# Conditions: with ubp2_human USP2, O75604
row,Variant,effect of a mutation on the interaction
1,N328S,with no effect

# Variants of: B3
# Conditions: with pkhg6_human PLEKHG6, Q3KR16
row,Variant,effect of a mutation on the interaction
1,L59F,with no effect

# Variants of: B4
# Conditions: with ldoc1_human LDOC1, O95751
# Sequence of ldoc1_human LDOC1, O95751 (O95751 whole entry): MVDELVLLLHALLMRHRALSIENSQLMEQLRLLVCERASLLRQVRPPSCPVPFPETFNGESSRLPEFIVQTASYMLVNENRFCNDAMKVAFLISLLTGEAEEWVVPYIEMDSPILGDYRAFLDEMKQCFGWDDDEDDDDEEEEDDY
row,Variant,effect of a mutation on the interaction
1,T137S,with no effect
2,P258A,with no effect
3,E322D,disrupting interaction strength

# Variants of: B4
# Conditions: with fbw1a_human BTRC
row,Variant,effect of a mutation on the interaction
1,T137S,with no effect
2,P258A,with no effect
3,E322D,disrupting interaction strength

# Variants of: B4
# Conditions: with tthy_human TTR
row,Variant,effect of a mutation on the interaction
1,T137S,with no effect

# Variants of: B4
# Conditions: with cc106_human CCDC106, Q9BWC9
# Sequence of cc106_human CCDC106, Q9BWC9 (Q9BWC9 whole entry): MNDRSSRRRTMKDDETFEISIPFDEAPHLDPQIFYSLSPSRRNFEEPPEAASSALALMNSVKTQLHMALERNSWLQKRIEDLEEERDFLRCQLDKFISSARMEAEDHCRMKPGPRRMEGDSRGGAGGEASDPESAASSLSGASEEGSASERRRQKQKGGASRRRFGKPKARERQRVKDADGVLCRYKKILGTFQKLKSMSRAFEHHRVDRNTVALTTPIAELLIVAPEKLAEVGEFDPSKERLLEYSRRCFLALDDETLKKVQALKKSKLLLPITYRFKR
row,Variant,effect of a mutation on the interaction
1,P258A,with no effect
2,E322D,disrupting interaction strength
